Source: patent US8313778B2, “Drug-delivery systems” (Evonik Roehm GmbH, priority 2005, dated 2012)
carboxyfluorescein = carboxyfluorescein label (N-terminal); fluorescein = fluorescein label

Columns and labels:
[1] = test system: HeLa cells; experiment: Cytotoxicity of hLF peptide, MTT test; type: cell-based, human; conditions: for ability of the cells to survive (MTT test): HeLa cells
Procedure: However, relatively short incubation times of less than one hour were used when observing peptide uptake in live cells. In addition, therefore, the effect of longer incubation times and higher concentrations of the peptides on the ability of the cells to survive was tested. HeLa cells were for this purpose incubated with hLF peptide at a concentration of 1.25 μM to 160 μm for 0.5 or 6 h. The vitality of the cells was then determined with an MTT test.

[2] = test system: HeLa cells; type: cell-based, human; conditions: flow cytometry (FIG. 5)
Procedure: Cells and reagents: The human HeLa carcinoma cells used are derived from the American Type Culture Collection (Manassas, Va., USA). HeLa cells were cultured in RPMI 1640 medium with stabilized glutamine and 2.0 g/l NaHCO3 (PAN Biotech, Aidenbach, Germany) and with 10% foetal calf serum (PAN Biotech). Chlorbromazine was purchased from (Calbiochem (Bad Soden, Germany), 5-(N-ethyl-N-isopropyl)amiloride (EIPA), methyl-β-cyclodextrin (MβCD) and MTT [3-(4,5-dimethylthiazol-2-yl)-2,5-diphenyltetrazolium bromide] was purchased from Sigma (Deisenhofen, Germany).
Peptides: The peptides used were synthesized by EMC microcollections (Tübingen, Germany). The purity of all the peptides was checked by analytical HPLC. […]
Stock solution of the peptides: The peptides were taken up in DMSO to result in a 10 mM solution. […] This took place by UV/VIS spectrometry with a 1:100 dilution of the stock solution with 0.1M Tris/HCl buffer (pH 8.8), the absorption at 492 nm was measured, and carboxyfluorescein was assumed to have an extinction coefficient of 75 000 l/(mol·cm). […]
The peptides derived from human or bovine lactoferrin were prepared by solid-phase peptide synthesis. […] In order to determine whether the derived lactoferrin peptides have an activity as cell-penetrating peptides, the cell-associated fluorescence of the HeLa cells incubated with bLF peptides or hLF peptides was determined by flow cytometry. […]

Substance | cytotoxic effects (MTT test) ([1]; HeLa cells incubated for only 30 min, up to a concentration of 40 μM (FIG. 6)) | ability of the cells to survive (MTT test) ([1]; concentrations above 40 μM (FIG. 6)) | ability of the cells to survive (MTT test) ([1]; peptide concentration of 5 μM, after 6 h (FIG. 6)) | uptake relative to the amount taken up of hLF peptide [2]
Fluo-KCFQWQRNMRKVRGPPVSCIKR-CONH2 (carboxyfluorescein-KCFQWQRNMRKVRGPPVSCIKR-NH2; cysteine pairing not given here; listed as Homo sapiens) [hLF peptide] | No cytotoxic effects | killed | slightly reduced | 
Fluo-FQWQRNMRKVRGPPVS-CONH2 (fluorescein-FQWQRNMRKVRGPPVS-NH2; listed as Homo sapiens) [LF1] |  |  |  | one-tenth
Fluo-FQWQRNMRKVR-CONH2 (fluorescein-FQWQRNMRKVR-NH2; listed as Homo sapiens) [LF2] |  |  |  | one-tenth
